# In PMC9747964 (Nature Communications, 2022):
# Substitutions are numbered along the chain they refer to.
# B1: EAGs30bp (dsDNA)
# DNA 1: GCACTGTGAATATCACTACAGCAACCTTAG
# DNA 2: CTAAGGTTGCTGTAGTGATATTCACAGTGC
# B2: EAGs14bp (dsDNA)
# DNA 1: GTAGGACCATCTGC
# DNA 2: GCAGATGGTCCTAC
# B3: EAGs40bp (dsDNA)
# DNA 1: CGTTAGCACTGTGAATATCACTACAGCAACCTTAGAATCG
# DNA 2: CGATTCTAAGGTTGCTGTAGTGATATTCACAGTGCTAACG
# What was measured:
# Conditions in all cases: protein: recombinant; tags: as P1; blunt
# ComEAGs-K201A = molecular target: T1, ComEAGs-K201A (Geobacillus stearothermophilus (ATCC …, UniProt A0A0K9HI54 60-207, K201A)); test: EMSA; 0.5 uM DNA, 1 mM MgCl2; MW-AUC: 10 mM Tris pH 8, 100 mM KCl, 20 C; EMSA: 10 mM Tris pH 8, 100 mM KCl, 2.5% glycerol, 0.5 mM EDTA, 1 mM MgCl2, room temperature 15 min, 8% native gel in
# T1 sequence: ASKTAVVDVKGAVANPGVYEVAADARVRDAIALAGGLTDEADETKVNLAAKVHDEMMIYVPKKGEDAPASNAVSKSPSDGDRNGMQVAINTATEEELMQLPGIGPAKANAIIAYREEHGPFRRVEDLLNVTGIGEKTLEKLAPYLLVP
# ComEAGs-K166A = molecular target: T2, ComEAGs-K166A (Geobacillus stearothermophilus (ATCC …, UniProt A0A0K9HI54 60-207, K166A)); test: as above
# T2 sequence: T1 sequence with K107A, A142K
# ComEAGs-A108Y [1] = molecular target: T3, ComEAGs-A108Y (Geobacillus stearothermophilus (ATCC …, UniProt A0A0K9HI54 60-207, A108Y)); test: MW-AUC; 1.5 uM DNA, 5:1 and 10:1 protein:DNA; >90% DNA bound; ~2:1 complex, 3.3-3.5 S; MW-AUC: 10 mM Tris pH 8, 100 mM KCl, 20 C; EMSA: 10 mM Tris pH 8, 100 mM KCl, 2.5% glycerol, 0.5 mM EDTA, 1 mM MgCl2, room temperature 15 min, 8% native gel in
# T3 sequence: T1 sequence with A49Y, A142K
# ComEAGs-A108Y [2] = molecular target: T3, ComEAGs-A108Y; test: MW-AUC; 1.5 uM DNA, 10:1 protein:DNA; >90% DNA bound; ~4.7:1 complex, 6.3 S; MW-AUC: 10 mM Tris pH 8, 100 mM KCl, 20 C; EMSA: 10 mM Tris pH 8, 100 mM KCl, 2.5% glycerol, 0.5 mM EDTA, 1 mM MgCl2, room temperature 15 min, 8% native gel in
binder,measurement,setting,value
B1,binding signal,ComEAGs-K201A,~2 fold decrease in apparent affinity vs wild-type
same,binding result,ComEAGs-K166A,no binding
B2,binding result,ComEAGs-A108Y [1],binds
B3,binding result,ComEAGs-A108Y [2],binds
